Results as given in patent US12234269B2, “Osteogenic biomaterial” (Northeast Ohio Medical University, priority 2014, dated 2025).

T1: CD44 (Mus musculus, UniProt P15379)
T1 construct: biotinylated rOA added onto MC3T3-E1 cells; endogenous in cells; host or cells: MC3T3-E1
T1 sequence (P15379 23-778): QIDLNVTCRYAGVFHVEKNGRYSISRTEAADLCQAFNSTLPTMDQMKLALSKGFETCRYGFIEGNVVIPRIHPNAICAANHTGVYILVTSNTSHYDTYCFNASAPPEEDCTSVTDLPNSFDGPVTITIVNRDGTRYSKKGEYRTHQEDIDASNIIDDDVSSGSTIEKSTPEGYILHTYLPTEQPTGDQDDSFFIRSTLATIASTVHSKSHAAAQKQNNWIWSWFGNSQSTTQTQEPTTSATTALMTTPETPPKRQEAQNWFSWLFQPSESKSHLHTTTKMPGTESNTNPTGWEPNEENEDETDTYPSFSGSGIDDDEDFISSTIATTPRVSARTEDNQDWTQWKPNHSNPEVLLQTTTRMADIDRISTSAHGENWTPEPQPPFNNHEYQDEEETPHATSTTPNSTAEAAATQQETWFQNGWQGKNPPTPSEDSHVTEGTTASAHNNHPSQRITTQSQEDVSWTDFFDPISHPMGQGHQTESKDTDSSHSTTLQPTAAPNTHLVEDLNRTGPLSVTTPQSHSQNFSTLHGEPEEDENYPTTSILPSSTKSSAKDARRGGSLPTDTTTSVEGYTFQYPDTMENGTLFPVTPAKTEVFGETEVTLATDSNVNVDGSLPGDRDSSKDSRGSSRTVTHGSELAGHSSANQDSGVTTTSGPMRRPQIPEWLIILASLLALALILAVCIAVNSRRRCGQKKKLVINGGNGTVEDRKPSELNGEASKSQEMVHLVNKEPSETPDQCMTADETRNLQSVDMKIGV

B1: OA: 572 amino acid transmembrane glycoprotein encoded by the GPNMB gene; recombinant protein (R&D Systems) soaked into collagen sponge (protein, UniProt Q14956 23-572, looked up)
Transmembrane glycoprotein NMB: KRFHDVLGNERPSAYMREHNQLNGWSSDENDWNEKLYPVWKRGDMRWKNSWKGGRVQAVLTSDSPALVGSNITFAVNLIFPRCQKEDANGNIVYEKNCRNEAGLSADPYVYNWTAWSEDSDGENGTGQSHHNVFPDGKPFPHHPGWRRWNFIYVFHTLGQYFQKLGRCSVRVSVNTANVTLGPQLMEVTVYRRHGRAYVPIAQVKDVYVVTDQIPVFVTMFQKNDRNSSDETFLKDLPIMFDVLIHDPSHFLNYSTINYKWSFGDNTGLFVSTNHTVNHTYVLNGTFSLNLTVKAAAPGPCPPPPPPPRPSKPTPSLATTLKSYDSNTPGPAGDNPLELSRIPDENCQINRYGHFQATITIVEGILEVNIIQMTDVLMPVPWPESSLIDFVVTCQGSIPTEVCTIISDPTCEITQNTVCSPVDVDEMCLLTVRRTFNGSGTYCVNLTLGDDTSLALTSTLISVPDRDPASPLRMANSALISVGCLAIFVTVISLLVYKKHKEYNPIENSPGNVVRSKGLSVFLNRAKAVFFPGNQEKDPLLKNQEFKGVS

Tests used:
[1] = Osteogenic activity of the peptide fragment
Text: A preferred osteoactivin active peptide fragment for use in the present invention is the amino acid sequence LAPFSRGDREKDPLLQDK (SEQ ID NO: 1). […] Accordingly, in some embodiments, shorter sections of SEQ ID NO: 1 consisting of 6 or 12 amino acids can be used.

CD44 = biological target: T1, CD44; experiment: Binding of biotinylated rOA on MC3T3-E1 cells (immunofluorescence, immunoprecipitation, blot for CD44)
Text: FIG. 3(A-C) provides images showing osteoactivin binds to CD44 in bone cells. (A) Silver staining and mass spectroscopy analysis of biotinylated rOA added onto MC3T3-E1 cells.

[2] = CBC, CMP, urinalysis and histological sampling of OA-treated sheep; type: in vivo, sheep (Ovis aries)
Text: Approval of the Northeast Ohio Medical University Institutional Animal Care and Use Committee (IACUC) was obtained prior to the start of this study. Six (6) male sheep (Ovis aries) between ages 2-3 years old were used, each with a critical size defect (25 mm in depth×11 mm in diameter) drilled into bilateral hind limb distal femurs. The surgical protocol utilized was based on previous work done to develop a model for cancellous bone healing (Malhotra et al, Front Surg. 2014 Sep. 8; 1:37). This method allowed for high quality standardization and sterility processes across each sheep. […] Martini et al., Comp Med. 2001 August; 51(4):292-9; Pearce et al., Eur Cell Mater. 2007 Mar. 2; 13:1-10. The procedures were performed by an orthopedic surgeon. Once under appropriate anesthesia, one femur defect (left hindlimb) was drilled with a cannulated acorn drill (Stryker) and packed with an PBS absorbable collagen sponge (Medline Industries) without OA protein and thus functioned as a control, while the other defect (right hindlimb) was filled with either a low dose (10 μg), or high dose (50 μg) recombinant OA-soaked collagen sponge (R&D Systems). Three sheep received the high dose OA while two received the low dose OA, and one was left as a control. The animals were allowed to recover and then terminated after a period of 10 weeks. […]

bone defect = conditions: at 4 weeks; none of the control animals showed complete bone fill; cited from earlier work
[3] = system: critical size defects in bilateral distal femurs; experiment: Sheep model for cancellous bone healing (critical size defect in distal femur, OA-soaked collagen sponge); type: in vivo, sheep (Ovis aries); conditions: for radiographic analysis: regeneration of bone at the defect site: vs control femurs
Text: Thus, the sheep model provides a way to study the effect of OA on osteogenesis by inducing critical size defects into the long bones of the animals. […] Approval of the Northeast Ohio Medical University Institutional Animal Care and Use Committee (IACUC) was obtained prior to the start of this study. Six (6) male sheep (Ovis aries) between ages 2-3 years old were used, each with a critical size defect (25 mm in depth×11 mm in diameter) drilled into bilateral hind limb distal femurs. The surgical protocol utilized was based on previous work done to develop a model for cancellous bone healing (Malhotra et al, Front Surg. 2014 Sep. 8; 1:37). This method allowed for high quality standardization and sterility processes across each sheep. […] Martini et al., Comp Med. 2001 August; 51(4):292-9; Pearce et al., Eur Cell Mater. 2007 Mar. 2; 13:1-10. The procedures were performed by an orthopedic surgeon. Once under appropriate anesthesia, one femur defect (left hindlimb) was drilled with a cannulated acorn drill (Stryker) and packed with an PBS absorbable collagen sponge (Medline Industries) without OA protein and thus functioned as a control, while the other defect (right hindlimb) was filled with either a low dose (10 μg), or high dose (50 μg) recombinant OA-soaked collagen sponge (R&D Systems). Three sheep received the high dose OA while two received the low dose OA, and one was left as a control. The animals were allowed to recover and then terminated after a period of 10 weeks. The femurs were harvested for x-ray (General Electric) and μCT (Scanco) imaging. Blood and urine samples were collected for CBC, CMP and urinalysis (ANTECH Diagnostics). Tissue biopsies were taken from heart, lung, liver, spleen, kidney, thyroid gland, adrenal gland, and skeletal muscle for RNA and histological analyses during post-mortem dissection.

bone segmental defect = experiment: Local delivery in a model of bone segmental defect; type: in vivo
Text: It is synthesized and secreted by osteoblasts where it acts as signaling molecule to promote osteoblast differentiation and function. […] Research has also shown that OA is involved in mouse and human stem cells differentiation to bone cells, and that OA is responsible to transdifferentiate muscle cells to bone forming osteoblasts. The receptor for OA in bone and mesenchymal stem cells is CD44. OA induces differentiation of mesenchymal stem cells to bone cells through CD44.

Molecule	osteogenic activity [1]	Immunoprecipitation of biotinylated rOA pulled out with streptavidin beads and blotted for CD44 (CD44; MC3T3-E1 cells)	Immunofluorescence of CD44 and OA (CD44; bone cells)	adverse systemic effects per laboratory studies or histological sampling ([2]; administered locally, sheep)	CBC, CMP and urinalysis ([2]; control vs OA-treated sheep)	animals showing complete bone fill (bone defect)	radiographs and μCT of the femur defect site ([3]; 50 μg OA, after 10 weeks, compared to control (FIG. 2))	bone healing and regeneration (radiographic, μCT imaging and histological analysis) ([3]; OA-soaked absorbable collagen sponge vs defect only or collagen sponge alone, n=6)	Micro-CT bone volume and density of the regenerated area ([3]; OA-treated defect sites vs control, 10 weeks)	radiographic analysis: regeneration of bone at the defect site ([3]; high dose (50 μg) recombinant OA-soaked collagen sponge, 10 weeks)	radiographic analysis: regeneration of bone at the defect site ([3]; low dose (10 μg) recombinant OA-soaked collagen sponge, 10 weeks)	bone regeneration (bone segmental defect)
LAPFSRGDREKDPLLQDK (listed as Homo sapiens) [SEQ ID NO: 1]	demonstrated the osteogenic activity	–	–	–	–	–	–	–	–	–	–	–
B1	–	OA-CD44 interaction	colocalization along the cell membrane	no apparent adverse systemic effects	no apparent abnormalities	70%	regenerated bone	significantly accelerated bone healing and regeneration	significant increase	complete regeneration of bone at the defect site	complete regeneration of bone at the defect site	stimulates bone regeneration
